This passage reports Kd results from paper PMC2979009.

pKd: −log10 of the molar value.

The experiment addresses subtilisin pS169 (A1C mutant of S189), labeled with Alexafluor 350 maleimide (Bacillus amyloliquefaciens).

“P1 (residues 1−77 of pG12), the prodomain product left after cleavage (domain or fragment)”: the negative logarithm of the Kd (pKd) was above 9.00.
